{"source": "paper PMC12475274", "about": "“Harnessing indole scaffolds to identify small-molecule IRE1α inhibitors modulating XBP1 mRNA splicing” (Nature Communications, 2025)", "biological_target": "the molecule itself", "test": "crystal structure; p-IRE1α (15 mg/mL) co-crystallised with 1 mM IA107; hanging drop, 0.05 M bicine pH 9.0, 36% PEG300, 0.12 M NaCl, 20 °C; four copies in the asymmetric unit", "data": [{"protein": "phosphorylated human IRE1α kinase and RNase domain (residues 547–977) (domain or fragment, UniProt O75460 547-977, looked up, phosphorylated (fully phosphorylated fraction, verified by LC-MS); the phosphorylated residues are not given, Human IRE1α (inositol-requiring enzyme 1 alpha), kinase and RNase domain, residues 547-977; Fully phosphorylated fraction separated from the unphosphorylated protein on the anion exchange column; also called p-IRE1α; phosphorylated IRE1α) GSSPSLEQDDGDEETSVVIVGKISFCPKDVLGHGAEGTIVYRGMFDNRDVAVKRILPECFSFADREVQLLRESDEHPNVIRYFCTEKDRQFQYIAIELCAATLQEYVEQKDFAHLGLEPITLLQQTTSGLAHLHSLNIVHRDLKPHNILISMPNAHGKIKAMISDFGLCKKLAVGRHSFSRRSGVPGTEGWIAPEMLSEDCKENPTYTVDIFSAGCVFYYVISEGSHPFGKSLQRQANILLGACSLDCLHPEKHEDVIARELIEKMIAMDPQKRPSAKHVLKHPFFWSLEKQLQFFQDVSDRIEKESLDGPIVKQLERGGRAVVKMDWRENITVPLQTDLRKFRTYKGGSVRDLLRAMRNKKHHYRELPAEVRETLGSLPDDFVCYFTSRFPHLLAHTYRAMELCSHERLFQPYYFHEPPEPQPPVTPDAL", "values": [{"measurement": "binding result", "result": "binds"}]}]}
